Laboratory results reported in patent EP2325637A1.

Molecular target: GFP-tagged Rab11a (UniProt P62491)
Assay: cell-based or functional assay

UniProt P62491, sequence (P62491 whole entry): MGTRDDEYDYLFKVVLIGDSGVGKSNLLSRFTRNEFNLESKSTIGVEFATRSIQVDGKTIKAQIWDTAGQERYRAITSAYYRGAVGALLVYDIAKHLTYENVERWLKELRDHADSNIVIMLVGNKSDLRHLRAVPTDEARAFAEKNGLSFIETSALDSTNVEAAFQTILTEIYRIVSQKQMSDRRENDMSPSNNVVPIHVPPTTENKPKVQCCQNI

colocalisation (confocal microscopy, HeLa cells): 100%
Substance: mCherry-MyoVa(1100-1853) fusion protein (from UniProt Q9Y4I1 1100-1828)
